Reference: a protein production outcome set (Wang et al. 2014)

Assay: label from the status in PepcDB records
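Further: failed if final PepcDB status was selected cloned or expressed and not failed if soluble or beyond.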

Sequence	protein production
MSNSIFHKIIKSVKGLKLKTDPNLPGAKQKTPLNIKRFYLLIILVIYTATSACIYFDWSAIRKLLLHVGKYKHLNVDEYSDMTLSPQYKRINGLYPLTLAVHFTTSVFCGFLYDHIGPKFTAIIGQLFNIICWILLSIDIKGVDTTLWGFIFLGLGADTAFIPVLTVSNLYPDASTFILTVIGAAASLSYAVPATLNLVLKYFPNLSFSYVCYGYIILILIPCLLTAAFLLPLKPFKALDYYLEKNNETTKHTNAEGRSRSSNNIYTNEEDEFHFKNNASGMVDKDSTENNMNTDEHNYYNNGNISSNDLENNIQTNNRNNNKNNNYNNNNNNNNIIKKNTKISDQSTVKKDKSIDSNKNILHDEEDFHKKSIFLFFKILISYPSVCVITYFILFNISTVFYGMVTDTYFSYDRSIINVINILMPLSSIPCVVFGRFINKYGASVIILTINTLSVLMHLCALIKFRFAGLCSAFLYMCVTSVYTSQIYCFIQNSFPSIVFGKLLGFASLCGGIFSLLCEKLYDLIIIKDSSSIDPTNISLLIVIAFIIMFLPLSILYVRKYERSIENFGEKDKLPMN	failed
MSNSINLGRVAVIDIGKTNAKVVVIDTGSGEEIAAEKRTNPVLRDGPYPHYDVEMLWNFILAALQRFGHEPGFDAISITTHGASAALLDGTGDLAMPVLDYEHIYAEPVQQAYRGIRPDFAETGSPQLPAGLNLGAQIHFQKTNFPDDFARVRSIVTYPQYWAGRLTGVQATETTSLGCHTDLWNPRRKSFSSLVGRLGIEHLMAPVRSAFDVLGTIRPSLAQETGLSPDMPVYCGIHDSNASLLPHLLRREGDFSVVSTGTWVVNFAIGGKADALDPARDTLLNVDALGRPVPSSRFMGGREYEMLAQQFGAATPHDIEAALGGVIEKGMMLLPSVVSGSGPFPQSASRWIADSDATGAERHAAASLYLALMTEFCLSLVERRGPIVVEGPFAGNALYLKALAAFAATDVIAMEGSTGTSAGAALLTGIKPVAGRERHFTAEDIAGLTSYRTAWQNHLT	failed
MSNSQAGPGASVRRVLAVIPARGGSKGVPAKNLAPVGGVPLVVRAVRECLAARLVTDVVVSTDDQAIAAAAREAGAEVVLRPAAIAGDTATSEAAVLHAMDAHEALHGAAVDVVLLVQCTSPFLVREDVDGVAGAVVEDGADTAVTVAPFHGFVWRDGADEPGGADGGHGVNHDKAYRPRRQDRPQDLLETGAAYAMAAPGFRKHRHRFFGRTDLVRTDPARVLEIDDPHDLARARALAPHFDTARPGALPTAADIDAVVLDFDGTQTDDRVLIDTDGREFVSVHRGDGLGIAALRRSGLTMLILSTEVNPVVAARARKLKLPVLHGIDRKDLALKQWCEEQGIAPERVLYVGNDVNDLPCFALVGWPVAVASAHDAVRGAARAVTTVPGGEGAVREIAAWLLGPSLDALGPASETTPTLTQSKLEHHHHHH	not failed
MSNVAQYKDGTYIGKAQGKAAEVEVTVSIKEGKIANAEVLKHGDTEAMMLSATDQIVPELIEKQDINKVDAVTGATLSSQGVINAVKQALEQAKVTPLEHHHHHH	not failed
MSNVCIVYSSTHHGNTEKVLNKIKEKFPETVLIKAGDFNPDDFNRYEAIGFASGIFYFKFAKPVDKLFEQALVGSVQKLFFIYTAGAVNAGFEKTLRKKTEQSGKICMGIFGCKGFDTFGPLKLIGGLNKNSPNEKDFKNAIDFFEKNIINALEHHHHHH	not failed
MSNYPLHQACMENEFFKVQELLHSKPSLLLQKDQDGRIPLHWSVSFQAHEITSFLLSKMENVNLDDYPDDSGWTPFHIACSVGNLEVVKSLYDRPLKPDLNKITNQGVTCLHLAVGKKWFEVSQFLIENGASVRIKDKFNQIPLHRAASVGSLKLIELLCGLGKSAVNWQDKQGWTPLFHALAEGHGDAAVLLVEKYGAEYDLVDNKGAKAEDVALNEQVKKFFLNNV	not failed
MSNYTESLQYLDSYISARVPVIGMRTIEQQRALRLLREAATQPRRSSMPFWIYTRATGLRDLRTNAPVQDDRSLTGAMDFAAAQFTSRANATVVFVDPDDLGGDTPITRHIAELARLADSNMGSIVLITDTPIWSGLQRLGMSLHLDLPDADEMYGILSGFLGDHHGHIPIEWDEADGRRAAEFLLGVTEAECINLMATIAAKGSIQKADVLGLAQAKDRIFSDLTGLERVQLKEADYTVGGLSSLREWLQRKHWQLHEDLRDSALRPPRGVLLVGVPGCGKSLSAKAIAHEWQLPLYRLDMGAIHGKYLGESEGRFREALAMADRVAPCVLWIDEIEKGLAGRDDGSGVPQRIIGQFLFWLQESQSRAFVVATANDIRSLPPELLRKGRFDELFFVDLPDAQDRKEIIELYYQRYLQGEPDRDQVDQLVDLSEGFAGSDIESALHDVGLEARRIGGADGLKASFLRDTFANTVPMSRVNPEQIEEIRAWGRERALPAGRSTVSAAPGGAKPSRRIVFMDD	failed
MSPASGSVISCAKVLDDYFYGSSNTVEALLLNSFETPALLFTTETSNLLTDIREDRSRHIEKISPYLLLTAGILSGFNPCLLAVMAFLASVNLTQKGRRKEMLKITLGFSTGIFTMHMLAGLSILGTVNFLPELRSYFSEIAVVMTALLGFWHIYDAYWLRKHAKTTFRTPQPLKDFMSRMDEKNLLLLSFLAGGMFSLVKAPCVGAVYLSLLSLLAMKTDIVRGIEYIWIFNLGLLLPVVLLGLLLAFGLSPKTVTEFRERKRVGIRLITGSILISLALMMQFRIL	failed
MSPISEPSRLDPVRPGQLLMIDLPGPELDKDTAAYLREHGIGAVCLFGKNVESAEQLRRLCADLREVMGEHALIAIDHEGGAITRPEFWPFAPSAMSLGAADDQQLTEDVNAALARQLRSVGINWNFTPVLDINVNPANPVIGDRAYGSDAARVTRHGRAALAGHTREGVAPCAKHFPGHGDTHQDSHLALPRVSKSRAELDAGELAPFRALLPETPAIMTAHIVYDALDAEHPATLSPRILTGLLREEWGYDGVIVTDSMGMQAIDANYGRGEAAVRALRAGADLVMALGRREVQQATLAAVAEYVPENQAAVATKRERLRALARRFPAQADETLDPQADAALLADA	not failed
MSPIVSVPDITAPVENVPAILPKVVPGELIVNKPTGGDSDELFQYLVDILASPVYDVAIESPLELAEKLSDRLGVNFYIKREDKQRVFSFKLRGAYNMMSNLSREELDKGVITASAGNHAQGVALAGQRLNCVAKIVMPTTTPQIKIDAVRALGGDVVLYGKTFDEAQTHALELSEKDGLKYIPPFDDPGVIKGQGTIGTEINRQLKDIHAVFIPVGGGGLIAGVATFFKQIAPNTKIIGVEPYGAASMTLSLHEGHRVKLSNVDTFADGVAVALVGEYTFAKCQELIDGMVLVANDGISAAIKDVYDEGRNILETSGAVAIAGAAAYCEFYKIKNENIVAIASGANMDFSKLHKVTELAGLGSGKEALLATFMVEQQGSFKTFVGLVGSLNFTELTYRFTSERKNALILYRVNVDKESDLEKMIEDMKSSNMTTLNLSHNELVVDHLKHLVGGSANISDEIFGEFIVPEKAETLKTFLDAFSPRNITLCRYRNQGDINASLLMGFQVPQAEMDEFKNQADKLGYPYELDNYNEAFNLVVSE	not failed
MSPLASRALSFLGALSLLTFAATPVLAESTPTAAPPQFAVESPKAASSLLLSVAHAGKRLVAVGDRGHILLSDDDGKTWTQAKVPTRQLLTSVFFVNERKGWAVGHDAQILVSDDAGSTWARQFEDLGREAPLLDIWFADEQHGLAVGAYGALLETRDGGQHWEDVSERLDNEDQFHLNAIAAVKDNGLLVVGEAGSLFRSKDWGATWEKLEGPYEGSLFGAIGTADAGGVLVYGLRGHLFRSADFGDSWEEIPLKAASGDLEFGLSDGALLADGRIVVVGHGGSVLESTDGGRSFSVFNRPDRLSLAGVSATGDGHLILVGQGGVHLAAANGAALEQQQLEHHHHHH	failed
MSPLHRFSRTEILIGPEKLQRLRESTVAIFGLGGVGSFAAEALCRAGVGRLVLVDFDDICLTNVNRQLHAMDGTVGKAKVQVMAERLRLINPDADIVPHKDFYEAGNSDFLLSGGYNYVVDAIDHITSKLHLIRSCRERELRIISSMGAANKLDPTKIRVADISKTSVCGLARVVRKQLRRQGIKSGVTVVYSTEEPREQAIADAGCRSNCICPNKEEQRFSCEHRRNILGSISFIPSIFGLTMAGVVVNDLAKD	failed
MSPMTIPSEMKALLLVGDGYTKTPSGSALEAMEPYLEQGRIAVPAPGPSQVLIKVNLASINPSDVAFIKGQYGQPRVKGRPAGFEGVGTIVAGGDEPYAKSLVGKRVAFATGLSNWGSWAEYAVAEAAACIPLLDTVRDEDGAAMIVNPLTAIAMFDIVKQEGEKAFVMTAGASQLCKLIIGLAKEEGFRPIVTVRRDEQIALLKDIGAAHVLNEKAPDFEATLREVMKAEQPRIFLDAVTGPLASAIFNAMPKRARWIIYGRLDPDATVIREPGQLIFQHKHIEGFWLSEWMRQFKERRGPAILEAQKRFSDGRWSTDVTAVVPLAEAIAWVPAELTKPNGKVFIRP	not failed
MSPNLFIHPRQMPQILLALLGKNLVEIARQFFSARDSNPFFTPAGLTRIARLGRSAVLIGKSKPVPAGKRPTGSKPVHSLPPDRVDPENHARLEVAETDRFPLVKESAPPASFFVEQSPSPAFGEEGNGACKGSGIGGRCVLCVGGRAVLYPEYRRVVEASGGKLVIYRNLPQEPGHHLPVLLDQADMVVCPLDCVNHTAFFTVKRYCRRSGKPCVLLDRSNLSTFCKGIATLAGLYTSPAPARSDQSKRRCPASPEEGQFKDYLEHHHHHH	failed
MSPRRSAAEAQATRGRILGRAAEIASEEGLDGITIGRLAEELEMSKSGVHKHFGTKETLQISTLDKAFVDFWHRVVEPALAEPPGLRRLRAVCANSVGYLEEPLLPGGCLLTAALSEYDGRPGRVRDAVAEVWSRWREQLRADLTAAVDKGELPAGFDVEQALFEIVAAGLALNAAMQLQHDRTAADRARRAIERALAQS	not failed
MSPTHKPMPEPTEVFTLPRWKITRWLTDTDRDVPTDIKRALIGSLFGTLSIFVGGVVNTLLVAALIAWHIQRPAFFAWFGLECLICIARISILVSARRRARAARSTHTDLHLALSLAWAFSVGLGTYLSITSGNWLAAALACLSSAAMIGGICFRNFGAPRMSGLMILLALGPCCLGAIVAREPLFLLTLIQLPVYVASMTSASFRMHAMLVATMQSERENAHRARHDSMTGLLNRGSLLAEIRATMECNAISPLRSALLYLDLDGFKRINDVHGHGCGDELLQQVADRMRATVPEGTHVSRIGGDEFVILLNLHESDDVQVLAQRLLRDIAVPYLLANGETVAIGVSIGITHISPNGQSADAVLNVADRALYVAKARGKGCFHFSEAVQAL	failed
MSPTLSILIPVYKRDCRRLLEELYKQAEELSVGYEIILGDDCSGEPYTSQYIAYEQEGLCRLVSAEENMGAGRLRNRLAEEAQGEQLLILDSDTLPASPDFIERYLRHASGTTVVCGGFVYPPKSTNPLRQRYGAEVESRSAEERARKPHSGFISMAFMIPRKQMLATGFPPNMGMGYEDILFGERLRQAGIPILHIDNPVEHYHCDTAEGFLATTRSYLDNLYCHREELAELVSLLRAYNLLKRLHLMRMVAALWPLIRSSLEKQLTGAKPSLLLFSLYKLLYVASLSLVCAEKS	failed
MSQAFPGPHGAPATGHVPVLRLGEVLLVTLQGDLHDSTAQQLQEDLAETIVRSGATGVVIDVSGVEIVDSFLGRILAEIAGQTGLLAARTVLVGMRPAVAITLVELGLTLPGVHTALSTEVAMELLRQQAPSSRFGGLRQESQ	not failed
MSQDNYFSRMLRGEAPVPAVAGTLGGVIRAVDLEAGSLESDYVATDAFLNPVGQVQGGMLGAMLDDVTAMLVTATLEDGASCSTLNLNLSFLRPAQAGLLRGRARLERRGRNVCNVVGELSQDGKLVATATATCMVARRA	not failed
MSQEAFENKLYANLEAVIDPELGVDIVNLGLVYDVTADENNNAVITMTMTSIGCPMAGQIVSDVKKVLSTNVPEVNEIEVNVVWNPPWSKERMSRMAKIALGIRD	not failed
MSQFWYSEETASRLAEELLQQAGEHGRIACLSAPSVYQKLKQLESVRSDGVSAVLLEFDRRFAAYGDEFVFYDYNNPLCLPEDLLPQSFDIVIADPPYLSEECLSKVTLTVKHLTKGKILLCTGAIMEEHAGKLLDLKMCSFLPRHNHNLANEFRCYVNYESRLLS	failed
